Usually Kd stands for the constant that tells how readily two partners part at equilibrium. One may read the koff as the first-order rate constant of dissociation. One may read the kon as the rate constant with which the complex forms. A word on the IC50: it is the concentration at which inhibition is half-maximal. One may read the EC50 as the concentration at which the effect is half-maximal.

Bounds are passed on as bounds.

The results in this text go back to US20190112375A1 (Bristol-Myers Squibb, published 2019).

The target in assay [1] is T1, human TIGIT (soluble, SPR; construct not stated) (human, UniProt Q495A1 22-141, limits assumed).
T1 construct: whole entry named; also called huTIGIT
T1 sequence: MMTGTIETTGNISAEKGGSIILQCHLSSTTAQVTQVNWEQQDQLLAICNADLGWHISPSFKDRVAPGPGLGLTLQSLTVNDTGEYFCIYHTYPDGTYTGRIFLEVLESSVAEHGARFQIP
Briefly: SPR.

Assay [2] has as its target T2, cynomolgus monkey TIGIT on cells (cynomolgus monkey, UniProt A0A7N9I9V4 89-312).
T2 construct: whole, on cells; also called TIGIT from cynomolgus monkeys expressed on CHO cells; cyno TIGIT on primary cells
Briefly: method not stated; follows the sentence on TIGIT expressed on CHO cells; monkey TIGIT; KD, method not stated.

For assay [3], the target named is T3, human TIGIT on cells (human, UniProt Q495A1 22-244).
T3 construct: also called huTIGIT on Jurkat cells; Jurkat/hTIGIT
T3 sequence: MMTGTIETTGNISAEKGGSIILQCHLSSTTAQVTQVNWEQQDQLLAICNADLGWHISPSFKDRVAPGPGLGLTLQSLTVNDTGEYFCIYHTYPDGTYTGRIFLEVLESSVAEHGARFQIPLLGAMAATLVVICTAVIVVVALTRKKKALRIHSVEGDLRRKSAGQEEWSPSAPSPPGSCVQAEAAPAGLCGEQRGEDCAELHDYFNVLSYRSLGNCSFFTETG
Briefly: method not stated; follows the sentence on TIGIT expressed on CHO cells; human TIGIT; KD, method not stated.

Assay [4] addresses T4, huTIGIT-muFc fusion protein (human; mouse, UniProt Q495A1 22-141).
T4 construct: also called TIGIT-mFc; not shown: mouse IgG2a Fc, at the C-terminus of the TIGIT part
T4 sequence: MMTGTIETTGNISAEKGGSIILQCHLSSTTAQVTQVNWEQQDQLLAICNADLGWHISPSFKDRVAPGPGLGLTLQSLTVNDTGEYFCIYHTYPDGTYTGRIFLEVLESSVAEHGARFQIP
Briefly: blockade of TIGIT-mFc (at its EC90, 12.8 nM) binding to P815 cells over-expressing human Nectin-2; competitor: human Nectin-2; P815 cells over-expressing human Nectin-2; TIGIT-mFc at EC90 12.8 nM.

Assay [5] addresses T5, hCD32a-H131 (FcγRIIA-H131) (human, UniProt P12318 36-218, limits assumed).
T5 sequence (looked up): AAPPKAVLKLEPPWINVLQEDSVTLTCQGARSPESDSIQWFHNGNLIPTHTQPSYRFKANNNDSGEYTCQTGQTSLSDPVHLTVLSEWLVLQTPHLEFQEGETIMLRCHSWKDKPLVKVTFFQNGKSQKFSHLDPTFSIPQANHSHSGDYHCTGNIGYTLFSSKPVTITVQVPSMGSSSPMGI
Briefly: Fcγ receptor binding as % of theoretical maximum response (% Rmax), two lots, two concentrations (10 µM, 1 µM); no negative control shown.

The target in assay [6] is hCD16b-NA2 (FcγRIIIB-NA2) (human, UniProt O75015 17-200, limits assumed). The description is as above.
Assay [7] deals with hCD16a-V158 (FcγRIIIA-V158) (human, UniProt P08637 17-208). The assay is described as above.
In assay [8] the target is T3, human TIGIT on cells. As to the kind of experiment: binding to human CD8+ T cells; human CD8+ T cells.
The target in assay [9] is T2, cynomolgus monkey TIGIT on cells. Briefly: binding to monkey CD8+ T cells; monkey CD8+ T cells; upper end of the range.
The target of assay [10] is T4, huTIGIT-muFc fusion protein. As to the kind of experiment: blockade of TIGIT-mFc (at its EC90, 14.1 nM) binding to P815 cells over-expressing human PVR; competitor: human PVR; P815 cells over-expressing human PVR; TIGIT-mFc at EC90 14.1 nM.
The target of assay [11] is T2, cynomolgus monkey TIGIT on cells. As to the kind of experiment: binding to monkey CD8+ T cells; monkey CD8+ T cells; lower end of the range.

B1: 22G2 IgG1.1f (antibody)
heavy: QVHLQESGPGLVKPSETLSLTCTVSGGSVSSGIYYWSWIRQPPGKGLEWIGYIYYSGSTNYNPSLKSRVTISVDTSKNQFSLKLSSVTAADTAVYYCARDYYVSGNYYNVDYYFFGVDVWGQGTTVTVSSASTKGPSVFPLAPSSKSTSGGTAALGCLVKDYFPEPVTVSWNSGALTSGVHTFPAVLQSSGLYSLSSVVTVPSSSLGTQTYICNVNHKPSNTKVDKRVEPKSCDKTHTCPPCPAPEAEGAPSVFLFPPKPKDTLMISRTPEVTCVVVDVSHEDPEVKFNWYVDGVEVHNAKTKPREEQYNSTYRVVSVLTVLHQDWLNGKEYKCKVSNKALPSSIEKTISKAKGQPREPQVYTLPPSREEMTKNQVSLTCLVKGFYPSDIAVEWESNGQPENNYKTTPPVLDSDGSFFLYSKLTVDKSRWQQGNVFSCSVMHEALHNHYTQKSLSLSPG
light: not shown
notes: effectorless IgG1.1f (L234A, L235E, G237A, A330S, P331S, EU numbering); also called anti-TIGIT mAb 22G2 IgG1.1f; antibody 22G2 IgG1.1f; copies: 2 + 2
Turning to B1, the figures for the Kd in assay [1], in assay [2] and in assay [3] were 0.07 nM, 0.07 nM and 0.09 nM, respectively. Also, in assay [1], the off-rate constant (koff) amounted to 0.00013 s⁻¹. In addition, the kon in [1] turned out to be 2e+06 M⁻¹ s⁻¹. Besides, the IC50 in assay [4] was 5.72 nM; in [10], 15.4 nM. The binding result in assay [5], in assay [6] and in assay [7] was “no binding (tested: 10 µM)” each time. The EC50 in [8] was 0.55 nM; in [9], at most 0.58 nM; in assay [11], at least 0.28 nM.
